The source of these data is the supplement of paper PMC5998384.

Series [1] concerns HeLa Kyoto. In words: thermal stability score vs G1/S (z-score of summed log2 fold changes over temperatures); higher = more thermally stable than in G1/S.
Series [2] deals with HeLa Kyoto. As to the kind of experiment: solubility change mitosis vs G1/S (difference of NP-40 vs SDS log2 ratios) (log2 ratio difference); higher = more soluble in mitosis.
Series [3] has as its system HeLa Kyoto. As to the kind of experiment: melting temperature (median over replicates), in situ; higher = more thermally stable.
The subject of series [4] is HeLa Kyoto. As to the kind of experiment: solubility in G1/S (NP-40 vs SDS abundance) (log2 ratio); higher = more soluble. Conditions: cell cycle stage: G1/S.
Setting [5] is: cell cycle stage: early G1 (4.5 h after nocodazole release).
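Wherever melting temperature (median over replicates), in situ is given: HeLa Kyoto cells synchronized by double thymidine or nocodazole block, proteins quantified by TMT10plex mass spectrometry, three independent biological replicates.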
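Wherever solubility change mitosis vs G1/S (difference of NP-40 vs SDS log2 ratios) is given: synchronized HeLa Kyoto cells (double thymidine block for G1/S, nocodazole release for mitosis), protein amounts in NP-40 versus SDS lysates quantified by mass spectrometry, three biological replicates.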
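Wherever solubility in G1/S (NP-40 vs SDS abundance) is given: HeLa Kyoto cells arrested at G1/S by double thymidine block, proteins quantified by TMT10plex mass spectrometry in mild NP-40 versus SDS extracts, three biological replicates.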
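Wherever thermal stability score vs G1/S (z-score of summed log2 fold changes over temperatures) is given: synchronized HeLa Kyoto cells, proteins quantified by TMT10plex mass spectrometry, three biological replicates, mitosis taken 0.5 h after nocodazole release, G1/S directly after double thymidine block.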

Consider “MLGFITRPPHRFLSLLCPGLRIPQLSVLCAQPRPRAMAISSSSCELPLVAVCQVTSTPDKQQNFKTCAELVREAARLGACLAFLPEAFDFIARDPAETLHLSEPLGGKLLEEYTQLARECGLWLSLGGFHERGQDWEQTQKIYNCHVLLNSKGAVVATYRKTHLCDVEIPGQGPMCESNSTMPGPSLESPVSTPAGKIGLAVCYDMRFPELSLALAQAGAEILTYPSAFGSITGPAHWEVLLRARAIETQCYVVAAAQCGRHHEKRASYGHSMVVDPWGTVVARCSEGPGLCLARIDLNYLRQLRRHLPVFQHRRPDLYGNLGHPLS [NIT1]”, for which the values for the thermal stability score with HeLa Kyoto [1] (setting [5]) and with HeLa Kyoto [1] (cell cycle stage: mitosis) were -1.82 and -2.71, respectively. The “solubility change mitosis (log2)” value in the series with HeLa Kyoto [2] is -0.133. Besides, the results for the melting temperature in the series on HeLa Kyoto [3] (cell cycle stage: G1/S) and in the series with HeLa Kyoto [3] (cell cycle stage: mitosis) were 54.7 °C and 55.1 °C, respectively. In the series with HeLa Kyoto [4], the “solubility in G1/S (log2)” value is 0.248.

For the sequence “MLGIWTLLPLVLTSVARLSSKSVNAQVTDINSKGLELRKTVTTVETQNLEGLHHDGQFCHKPCPPGERKARDCTVNGDEPDCVPCQEGKEYTDKAHFSSKCRRCRLCDEGHGLEVEINCTRTQNTKCRCKPNFFCNSTVCEHCDPCTKCEHGIIKECTLTSNTKCKEEGSRSNLGWLCLLLLPIPLIVWVKRKEVQKTCRKHRKENQGSHESPTLNPETVAINLSDVDLSKYITTIAGVMTLSQVKGFVRKNGVNEAKIDEIKNDNVQDTAEQKVQLLRNWHQLHGKKEAYDTLIKDLKKANLCTLAEKIQTIILKDITSDSENSNFRNEIQSLV [FAS]”, the results for the thermal stability score in the series with HeLa Kyoto [1] (setting [5]) and in the series with HeLa Kyoto [1] (cell cycle stage: mitosis) were -0.244 and -1.13, respectively. Besides, in the series with HeLa Kyoto [2], the “solubility change mitosis (log2)” value stood at 0.0304. For the same sequence, the melting temperature turned out to be 54.1 °C in the series on HeLa Kyoto [3] (cell cycle stage: G1/S) and 54.4 °C in the series on HeLa Kyoto [3] (cell cycle stage: mitosis). Further, in the series on HeLa Kyoto [4], the “solubility in G1/S (log2)” value came out at 0.525.

Turning to “MLGLLVALLALGLAVFALLDVWYLVRLPCAVLRARLLQPRVRDLLAEQRFPGRVLPSDLDLLLHMNNARYLREADFARVAHLTRCGVLGALRELRAHTVLAASCARHRRSLRLLEPFEVRTRLLGWDDRAFYLEARFVSLRDGFVCALLRFRQHLLGTSPERVVQHLCQRRVEPPELPADLQHWISYNEASSQLLRMESGLSDVTKDQ [THEM6]”, the thermal stability score with HeLa Kyoto [1] (setting [5]) was -1.92; in the series with HeLa Kyoto [1] (cell cycle stage: mitosis) it was -2.82. Further, in the series on HeLa Kyoto [2], the “solubility change mitosis (log2)” value is -0.052. Besides, the melting temperature in the series with HeLa Kyoto [3] (cell cycle stage: G1/S) stood at 55.3 °C; in the series on HeLa Kyoto [3] (cell cycle stage: mitosis), 53.8 °C. Besides, in the series on HeLa Kyoto [4], the “solubility in G1/S (log2)” value was -0.64.

Take “MLKKFDKKDEESGGGSNPFQHLEKSAVLQEARVFNETPINPRKCAHILTKILYLINQGEHLGTTEATEAFFAMTKLFQSNDPTLRRMCYLTIKEMSCIAEDVIIVTSSLTKDMTGKEDNYRGPAVRALCQITDSTMLQAIERYMKQAIVDKVPSVSSSALVSSLHLLKCSFDVVKRWVNEAQEAASSDNIMVQYHALGLLYHVRKNDRLAVNKMISKVTRHGLKSPFAYCMMIRVASKQLEEEDGSRDSPLFDFIESCLRNKHEMVVYEAASAIVNLPGCSAKELAPAVSVLQLFCSSPKAALRYAAVRTLNKVAMKHPSAVTACNLDLENLVTDSNRSIATLAITTLLKTGSESSIDRLMKQISSFMSEISDEFKVVVVQAISALCQKYPRKHAVLMNFLFTMLREEGGFEYKRAIVDCIISIIEENSESKETGLSHLCEFIEDCEFTVLATRILHLLGQEGPKTTNPSKYIRFIYNRVVLEHEEVRAGAVSALAKFGAQNEEMLPSILVLLKRCVMDDDNEVRDRATFYLNVLEQKQKALNAGYILNGLTVSIPGLERALQQYTLEPSEKPFDLKSVPLATAPMAEQRTESTPITAVKQPEKVAATRQEIFQEQLAAVPEFRGLGPLFKSSPEPVALTESETEYVIRCTKHTFTNHMVFQFDCTNTLNDQTLENVTVQMEPTEAYEVLCYVPARSLPYNQPGTCYTLVALPKEDPTAVACTFSCMMKFTVKDCDPTTGETDDEGYEDEYVLEDLEVTVADHIQKVMKLNFEAAWDEVGDEFEKEETFTLSTIKTLEEAVGNIVKFLGMHPCERSDKVPDNKNTHTLLLAGVFRGGHDILVRSRLLLLDTVTMQVTARSLEELPVDIILASVG [COPG1]”: the figures for the thermal stability score with HeLa Kyoto [1] (setting [5]) and with HeLa Kyoto [1] (cell cycle stage: mitosis) were 0.468 and -0.737, respectively. The “solubility change mitosis (log2)” value in the series on HeLa Kyoto [2] was -0.224. In addition, the melting temperature with HeLa Kyoto [3] (cell cycle stage: G1/S) was determined as 52 °C; in the series on HeLa Kyoto [3] (cell cycle stage: mitosis), 51.5 °C. The “solubility in G1/S (log2)” value in the series on HeLa Kyoto [4] was -0.169.

For “MLLAVLLLLPLPSSWFAHGHPLYTRLPPSALQVLSAQGTQALQAAQRSAQWAINRVAMEIQHRSHECRGSGRPRPQALLQDPPEPGPCGERRPSTANVTRAHGRIVGGSAAPPGAWPWLVRLQLGGQPLCGGVLVAASWVLTAAHCFVGAPNELLWTVTLAEGSRGEQAEEVPVNRILPHPKFDPRTFHNDLALVQLWTPVSPGGSARPVCLPQEPQEPPAGTACAIAGWGALFEDGPEAEAVREARVPLLSTDTCRRALGPGLRPSTMLCAGYLAGGVDSCQGDSGGPLTCSEPGPRPREVLFGVTSWGDGCGEPGKPGVYTRVAVFKDWLQEQMSASSSREPSCRELLAWDPPQELQADAARLCAFYARLCPGSQGACARLAHQQCLQRRRRCELRSLAHTLLGLLRNAQELLGPRPGLRRLAPALALPAPALRESPLHPARELRLHSGSRAAGTRFPKRRPEPRGEANGCPGLEPLRQKLAALQGAHAWILQVPSEHLAMNFHEVLADLGSKTLTGLFRAWVRAGLGGRHVAFSGLVGLEPATLARSLPRLLVQALQAFRVAALAEGEPEGPWMDVGQGPGLERKGHHPLNPQVPPARQP [PRSS56]”, the thermal stability score worked out at 1.67 in the series with HeLa Kyoto [1] (setting [5]) and 3.49 in the series with HeLa Kyoto [1] (cell cycle stage: mitosis). Besides, in the series on HeLa Kyoto [2], the “solubility change mitosis (log2)” value was -0.116. The values for the melting temperature in the series on HeLa Kyoto [3] (cell cycle stage: G1/S) and in the series with HeLa Kyoto [3] (cell cycle stage: mitosis) were 53.2 °C and 53.3 °C, respectively. In the series on HeLa Kyoto [4], the “solubility in G1/S (log2)” value turned out to be 0.296.

With “MLLKTVLLLGHVAQVLMLDNGLLQTPPMGWLAWERFRCNINCDEDPKNCISEQLFMEMADRMAQDGWRDMGYTYLNIDDCWIGGRDASGRLMPDPKRFPHGIPFLADYVHSLGLKLGIYADMGNFTCMGYPGTTLDKVVQDAQTFAEWKVDMLKLDGCFSTPEERAQGYPKMAAALNATGRPIAFSCSWPAYEGGLPPRVNYSLLADICNLWRNYDDIQDSWWSVLSILNWFVEHQDILQPVAGPGHWNDPDMLLIGNFGLSLEQSRAQMALWTVLAAPLLMSTDLRTISAQNMDILQNPLMIKINQDPLGIQGRRIHKEKSLIEVYMRPLSNKASALVFFSCRTDMPYRYHSSLGQLNFTGSVIYEAQDVYSGDIISGLRDETNFTVIINPSGVVMWYLYPIKNLEMSQQ [NAGA]”, the thermal stability score with HeLa Kyoto [1] (setting [5]) was -1.47; in the series on HeLa Kyoto [1] (cell cycle stage: mitosis), -2.02. In addition, the “solubility change mitosis (log2)” value with HeLa Kyoto [2] is -0.171. Besides, the melting temperature worked out at 54.8 °C in the series with HeLa Kyoto [3] (cell cycle stage: G1/S) and 54.5 °C with HeLa Kyoto [3] (cell cycle stage: mitosis). The “solubility in G1/S (log2)” value in the series on HeLa Kyoto [4] worked out at 0.254.
